The target of test [1] is T1, human EGFR on cells (human, UniProt P00533 25-1210). Kind of test: cell-based or functional assay.
Test [2] concerns the target T1, human EGFR on cells. Kind of test: cell-based or functional assay. This is another data set of the same source.
Test [3] concerns the target T1, human EGFR on cells. Kind of test: cell-based or functional assay. The source holds these as a separate data set.
For test [4], the target named is T1, human EGFR on cells. Kind of test: flow cytometry on EGFR-expressing A-431 cells, 37° C. (In general: Flow cytometry measures light scatter and fluorescence of single cells or particles in a stream.)
The target in another test is huCD16A (human, UniProt P08637 17-208, limits assumed). Kind of test: RIA assay on huCD16A with radioiodinated scFv-IgAB_02; RIA assay on huCD16A.
The target in test [5] is T2, CD16A on primary human NK-cells (human, UniProt P08637 17-254).
T2 construct: whole, on cells; also called FcγRIIIA
Kind of test: flow cytometry on primary human NK-cells, 37°C, without IgG; mean of 2 experiments.
Description: (§1) After the last staining step, the cells were washed again and resuspended in 0.2 mL of FACS buffer containing 2 μg/mL propidium iodide (PI) (Sigma, cat.: P4170) in order to exclude dead cells. The fluorescence of 2-5×10³ living cells was measured using a Millipore Guava EasyCyte flow cytometer (Merck Millipore, Schwalbach, Germany). Mean fluorescence intensities of the cell samples were calculated using Incyte software (Merck Millipore, Schwalbach, Germany). After subtracting the fluorescence intensity values of the cells stained with the secondary and tertiary reagents alone, the values were used for non-linear regression analysis using the GraphPad Prism software (GraphPad Prism version 6.00 for Windows, GraphPad Software, La Jolla Calif. USA). For the calculation of KD, the equation for one-site-binding (hyperbola) was used.
(§2) To assess the impact of physiological concentrations of human IgG on the binding capacity of bispecific EGFR/CD16A antigen-binding proteins, binding assays with several bispecific EGFR/CD16A antigen-binding proteins on primary human NK-cells were performed in presence or absence of 10 mg/mL polyclonal human IgG as exemplarily shown in FIG. 10.

Test [6] deals with T3, Cynomolgus FcRn (FCGRT/B2M) (cynomolgus, UniProt Q8SPV9 24-297; Q8SPW0 21-119, biotin-labelled (Avi-Tag)).
T3 construct: Purchased; also called FcRn (FCGRT/B2M), Avi-Tag, Biotin-Labeled, (Cynomolgus) Acro Cat #FCM-C82W5
Kind of test: SPR (Biacore T200), pH 6.0, biotinylated FcRn captured, multi cycle kinetics, 1:1 model.
Description: (§3) Binding of EGFR/CD16A antigen-binding proteins to FcRn (human, cynomolgus, murine) was measured on a Biacore T200 Instrument at 25° C. using PBS-T buffer pH 6.0 as running buffer and for dilution (1×Gibco PBS, 0.005% Tween20, titrated to pH 6.0 using 4 M HCl). For this purpose, a Multi Cycle Kinetic experiments was performed using Biotin CAPture Kit (GE Healthcare). For activation of the sensor surface, Biotin CAPture reagent (GE Healthcare) was injected to Flow Cells Fc 1-4 (100 sec, 5 μL/min) resulting in a response of 2100 RU-2800 RU. Biotinylated FcRn of different species were injected to Flow Cell Fc 2 (5 μL/min) resulting in a response of about 8-15 RU. A dilution series of EGFR/CD16A antigen-binding proteins was in (pH 7.4) as running buffer and for dilution. […] Chip was regenerated using Regeneration solution (GE Healthcare) (10 μL/min, Flow cells 1-4, 120 sec). Sensorgrams are referenced by subtraction of zero concentration cycle and subtraction of signals in reference channel Fc 1 (Fc 2-1, Fc 3-1, Fc 4-1). […] Chip was regenerated using Regeneration solution (GE Healthcare) (10 μL/min, Flow cells 1-4, 120 sec). […] Binding kinetics were evaluated by fitting data to 1:1 Binding Model (Rmax and RI locally fitted) using Biacore T200 Evaluation Software.

Test [7] concerns the target T4, Human FcRn (FCGRT/B2M) (human, UniProt P55899 24-297; P61769 21-119, biotin-labelled (site not stated)).
T4 construct: Purchased; also called FcRn (FCGRT/B2M), His-Tag, Biotin-Labeled, (Human) HiP Cat #71283
The test is described as above.

In test [8] the target is T5, Mouse FcRn (FCGRT/B2M) (mouse, UniProt Q61559 22-297; P01887 21-119, biotin-labelled (Avi-Tag)).
T5 construct: Purchased; also called murine FcRn; murine FcRn receptor
T5 sequence (looked up): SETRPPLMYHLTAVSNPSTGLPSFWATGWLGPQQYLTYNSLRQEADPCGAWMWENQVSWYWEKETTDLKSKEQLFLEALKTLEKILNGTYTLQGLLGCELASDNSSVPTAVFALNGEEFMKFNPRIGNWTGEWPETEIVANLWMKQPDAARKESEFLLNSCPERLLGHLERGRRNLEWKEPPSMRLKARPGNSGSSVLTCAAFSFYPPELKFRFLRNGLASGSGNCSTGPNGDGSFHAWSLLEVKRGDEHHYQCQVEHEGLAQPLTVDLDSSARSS
T5 sequence (b2m, looked up): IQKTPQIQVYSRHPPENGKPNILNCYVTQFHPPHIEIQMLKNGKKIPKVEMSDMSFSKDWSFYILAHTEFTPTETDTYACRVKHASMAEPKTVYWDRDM
The description is as above.
Description: as §3

The target in test [9] is T1, human EGFR on cells. Kind of test: saturation binding assay on A-431 cells with radioiodinated scFv-IgAB_02; saturation binding assay on A-431 cells.
Test [10] has as its target T2, CD16A on primary human NK-cells. Kind of test: flow cytometry on primary human NK-cells, 37°C, with 10 mg/mL polyclonal human IgG (Gammanorm); mean of 2 experiments.
Description: as §1, §2
Another test addresses T6, EGFR-mFc.
T6 construct: Coated at 2.5 µg/mL in ELISA; also called monomeric EGFR-mFc; EGFR-mFc antigen
Kind of test: ELISA, coated EGFR-mFc antigen, scFv-IgAb titrated, bound construct detected with biotinylated CD16-Fc and streptavidin-HRP. On the technique in general: An ELISA detects its analyte on a solid surface through an enzyme-linked reagent.

The target of a further test is T7, huCD16A^RV-His (human).
T7 construct: soluble, His-tagged; also called CD16-His antigen
Kind of test: ELISA, coated EGFR/CD16A scFv-IgAb, soluble huCD16A^RV-His titrated (the concentration axis is that of the antigen), Penta-HIS-HRP per paragraph 126.

Test [11] concerns the target T1, human EGFR on cells. Kind of test: cell-based or functional assay. This is another data set of the same source.
In test [12] the target is T1, human EGFR on cells. Kind of test: flow cytometry on HCT-116 cells, 37°C; mean of 2 experiments.
Description: After the last staining step, the cells were washed again and resuspended in 0.2 mL of FACS buffer containing 2 μg/mL propidium iodide (PI) (Sigma, cat.: P4170) in order to exclude dead cells. The fluorescence of 2-5×10³ living cells was measured using a Millipore Guava EasyCyte flow cytometer (Merck Millipore, Schwalbach, Germany). Mean fluorescence intensities of the cell samples were calculated using the Incyte software (Merck Millipore, Schwalbach, Germany). After subtracting the fluorescence intensity values of the cells stained with the secondary and tertiary reagents alone, the values were used for non-linear regression analysis using the GraphPad Prism software (GraphPad Prism version 6.00 for Windows, GraphPad Software, La Jolla Calif. USA). For the calculation of KD, the equation for one-site-binding (hyperbola) was used.
The target of test [13] is T4, Human FcRn (FCGRT/B2M). Kind of test: SPR (Biacore T200), pH 6.0, biotinylated FcRn captured, multi cycle kinetics. (Surface plasmon resonance follows binding to a sensor surface in real time, without labels.)
Description: as §3
In test [14] the target is T3, Cynomolgus FcRn (FCGRT/B2M). The description is as above.
Description: as §3
Test [15] concerns the target T5, Mouse FcRn (FCGRT/B2M). Described as above.
Description: as §3
The next test concerns the target T8, EGFRvIII on CHO cells (human, UniProt P00533 25-1210).
T8 construct: whole, on cells; the exon 2-7 deletion must be applied; also called EGFRvIII+ CHO cells
Kind of test: flow cytometry on CHO cells expressing recombinant EGFRvIII, 37°C; apparent affinity.

For test [16], the target named is T1, human EGFR on cells. Kind of test: flow cytometry on CHO cells expressing recombinant human EGFR, 37°C; apparent affinity.
Description: (§4) After last staining step, the cells were washed again and resuspended in 0.2 mL of FACS buffer containing 2 μg/mL propidium iodide (PI) (Sigma, cat.: P4170) in order to exclude dead cells. The fluorescence of 2-5×10³ living cells was measured using a Beckman-Coulter FC500 MPL flow cytometer using the MXP software (Beckman-Coulter, Krefeld, Germany) or a Millipore Guava EasyCyte flow cytometer (Merck Millipore, Schwalbach, Germany). Mean fluorescence intensities of the cell samples were calculated using CXP software (Beckman-Coulter) or Incyte software (Merck Millipore, Schwalbach, Germany). After subtracting the fluorescence intensity values of the cells stained with the secondary and tertiary reagents alone, the values were used for non-linear regression analysis using the GraphPad Prism software (GraphPad Prism version 6.00 for Windows, GraphPad Software, La Jolla Calif. USA). For the calculation of KD, the equation for one-site-binding (hyperbola) was used.
For test [17], the target named is T2, CD16A on primary human NK-cells. Kind of test: flow cytometry on primary human NK-cells, 37° C., with 10 mg/mL gammanorm (polyclonal human IgG).
Description: as §1, §2
A further test has as its target T9, EGFR-antigen (ELISA).
T9 construct: also called EGFR-Fc
Kind of test: ELISA, coated EGFR-Fc antigen, tandem diabody titrated (His-tagged analyte, Penta-HIS-HRP per paragraph 126).

The target of the next test is T10, CD16A-antigen (ELISA).
T10 construct: also called CD16A-Fc
Kind of test: ELISA, coated CD16A-Fc antigen, tandem diabody titrated (His-tagged analyte, Penta-HIS-HRP per paragraph 126).

For orientation: EC50 (read off the curve) means the concentration that produces a half-maximal response. A lower EC50 (read off the curve) goes with an effect from little substance.

T3 sequence (Q8SPV9 24-297 limits assumed, chain 1 of 2): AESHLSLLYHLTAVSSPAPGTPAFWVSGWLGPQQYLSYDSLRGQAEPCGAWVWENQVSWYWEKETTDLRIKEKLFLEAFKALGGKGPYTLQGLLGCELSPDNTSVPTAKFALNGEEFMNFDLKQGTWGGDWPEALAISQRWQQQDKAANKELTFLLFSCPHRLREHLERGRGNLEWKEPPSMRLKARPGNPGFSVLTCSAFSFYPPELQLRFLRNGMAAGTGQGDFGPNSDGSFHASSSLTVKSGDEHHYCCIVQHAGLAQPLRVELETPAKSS
T3 sequence (Q8SPW0 21-119 limits assumed, chain 2 of 2): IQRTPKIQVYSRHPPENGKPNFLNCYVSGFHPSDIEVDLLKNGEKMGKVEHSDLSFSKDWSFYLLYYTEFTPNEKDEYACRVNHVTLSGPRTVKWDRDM
T4 sequence (P55899 24-297 limits assumed, chain 1 of 2): as the sequence (Q8SPV9 24-297 limits assumed, chain 1 of 2) above, with D39N, Q44E, S99G, G189S, N190S, M217L, T269S counted along it
T4 sequence (P61769 21-119 limits assumed, chain 2 of 2): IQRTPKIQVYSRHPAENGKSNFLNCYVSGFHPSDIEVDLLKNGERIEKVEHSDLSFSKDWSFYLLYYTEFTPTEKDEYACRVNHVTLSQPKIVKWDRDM
Description for CD16A-antigen (ELISA): (§5) 96-well ELISA plates (Immuno MaxiSorp; Nunc) were coated overnight at 4° C. with recombinant antigen or antibodies in 100 mM Carbonate-bicarbonate buffer. […] After a blocking step with 3% (w/v) skim milk powder (Merck) dissolved in PBS, serial dilutions of the different antibodies or soluble antigens in PBS containing 0.3% (w/v) skim milk powder were incubated on the plates for 1.5 h at room temperature. After washing three times with 300 μL per well of PBS containing 0.1% (v/v) Tween 20, plates were incubated with detection antibodies for 1 h at room temperature. For the detection of His-tagged analytes, Penta-HIS-HRP (Qiagen) was used at 1:3000 dilution. […] After washing three times with 300 μL per well of PBS containing 0.1% (v/v) Tween 20, plates were incubated with Tetramethylbenzidine (TMB) substrate (Seramun) until colour development was clearly visible. The reaction was stopped through the addition of 100 μL per well of 0.5 M H₂SO₄. The absorbance was measured at 450 nm using a multilabel plate reader (Victor, Perkin Elmer).
Description for EGFR-antigen (ELISA): as §5
Description for EGFR-mFc: as §5
Description for EGFRvIII on CHO cells: as §4
Description for huCD16A^RV-His: as §5

B1: scFv-IgAb_02 (bispecific antibody)
heavy: QVQLVQSGAEVKKPGESLKVSCKASGYTFTSYYMHWVRQAPGQGLEWMGIINPSGGSTSYAQKFQGRVTMTRDTSTSTVYMELSSLRSEDTAVYYCARGSAYYYDFADYWGQGTLVTVSSASTKGPSVFPLAPSSKSTSGGTAALGCLVKDYFPEPVTVSWNSGALTSGVHTFPAVLQSSGLYSLSSVVTVPSSSLGTQTYICNVNHKPSNTKVDKKVEPKSCDKTHTCPPCPAPEFEGGPSVFLFPPKPKDTLMISRTPEVTCVVVAVSHEDPEVKFNWYVDGVEVHNAKTKPREEQYNSTYRVVSVLTVLHQDWLNGKEYKCKVSNKALPAPIEKTISKAKGQPREPQVYTLPPSREEMTKNQVSLTCLVKGFYPSDIAVEWESNGQPENNYKTTPPVLDSDGSFFLYSKLTVDKSRWQQGNVFSCSVMHEALHNHYTQKSLSLSPGGGGGSGGGGSQVQLQESGPGLVKPSETLSLTCTVSGGSVSSGSYYWSWIRQPPGKGLEWIGYIYYSGSTNYNPSLKSRVTISVDTSKNQFSLKLSSVTAADTAVYYCARNPISIPAFDIWGQGTMVTVSSGGSGGSGGSGGSGGSGGSQPVLTQPPSVSVAPGKTARITCGGNNIGSKSVHWYQQKPGQAPVLVIYYDSDRPSGIPERFSGSNSGNTATLTISRVEAGDEADYYCQVWDTSSDHVLFGGGTKLTVL
light: SYVLTQPSSVSVAPGQTATISCGGHNIGSKNVHWYQQRPGQSPVLVIYQDNKRPSGIPERFSGSNSGNTATLTISGTQAMDEADYYCQVWDNYSVLFGGGTKLTVLGQPKAAPSVTLFPPSSEELQANKATLVCLISDFYPGAVTVAWKADSSPVKAGVETTTPSKQSNNKYAASSYLSLTPEQWKSHRSYSCQVTHEGSTVEKTVAPTECS
notes: Tetravalent, bispecific: anti-CD16A Fab arms, silenced human IgG1 Fc, anti-EGFR scFv fused C-terminally to CH3; also called EGFR/CD16A scFv-IgAb; scFv-IgAb_2
For the molecule B1, the “EC50 [pM] mean, 4 h calcein-release cytotoxicity, A-431 target cells, human NK-cells E:T 5:1” value with human EGFR on cells [1] was 2.1 pM. Moreover, in the test with human EGFR on cells [2], the “EC50 [pM] mean, 4 h calcein-release cytotoxicity, HCT-116 target cells, human NK-cells E:T 5:1” value is 4.3 pM. In addition, the “EC50 [µg/mL] on A-431 cells, inhibition of EGF-stimulated EGFR phosphorylation (phospho-EGFR ELISA)” value with human EGFR on cells [3] was 1520 µg/mL. The “EC50 [µg/mL] on A-549 cells, inhibition of EGF-stimulated EGFR phosphorylation (phospho-EGFR ELISA)” value in the test with human EGFR on cells [3] is 478 µg/mL. Also, the “EC50 (read off the curve)” value with human EGFR on cells [4] is approximately 2 nM; with EGFR-mFc it was approximately 0.02 µg/mL; with huCD16A^RV-His, approximately 1 nM. In addition, the Kd was 0.729 nM in the test with huCD16A; 8 nM in [5]; 842 nM in test [6]; 430 nM with Human FcRn (FCGRT/B2M) [7]; 180 nM with Mouse FcRn (FCGRT/B2M) [8]; 6.98 nM with human EGFR on cells [9]. In test [10], this molecule returned a Kd of 13.1 nM.

B2: EGFR/CD16A tandem diabody (bispecific antibody)
chain: QVQLQESGPGLVKPSETLSLTCTVSGGSVSSGSYYWSWIRQPPGKGLEWIGYIYYSGSTNYNPSLKSRVTISVDTSKNQFSLKLSSVTAADTAVYYCARNPISIPAFDIWGQGTMVTVSSGGSGGSGGSSYVLTQPSSVSVAPGQTATISCGGHNIGSKNVHWYQQRPGQSPVLVIYQDNKRPSGIPERFSGSNSGNTATLTISGTQAMDEADYYCQVWDNYSVLFGGGTKLTVLGGSGGSQVQLVQSGAEVKKPGESLKVSCKASGYTFTSYYMHWVRQAPGQGLEWMGIINPSGGSTSYAQKFQGRVTMTRDTSTSTVYMELSSLRSEDTAVYYCARGSAYYYDFADYWGQGTLVTVSSGGSGGSGGSQPVLTQPPSVSVAPGKTARITCGGNNIGSKSVHWYQQKPGQAPVLVIYYDSDRPSGIPERFSGSNSGNTATLTISRVEAGDEADYYCQVWDTSSDHVLFGGGTKLTVLAAAGSHHHHHH
notes: no Fc; also called Tandem diaody
Regarding B2, the “EC50 [pM] mean, 4 h calcein-release cytotoxicity, A-431 target cells, human NK-cells E:T 5:1” value in the test with human EGFR on cells [1] was 1.1 pM. The “EC50 [pM] mean, 4 h calcein-release cytotoxicity, HCT-116 target cells, human NK-cells E:T 5:1” value in the test with human EGFR on cells [2] was 1.5 pM. The “EC50, inhibition of EGF-induced EGFR phosphorylation (phospho-EGFR ELISA, A-431 cells), Exp.1” value with human EGFR on cells [11] is more than 100 µg/mL. In the test with human EGFR on cells [11], the “EC50, inhibition of EGF-induced EGFR phosphorylation (phospho-EGFR ELISA, A-431 cells), Exp.2” value is more than 100 µg/mL. The Kd with human EGFR on cells [12] amounted to 0.3 nM; in test [5] it was 7.7 nM; with EGFRvIII on CHO cells, 0.5 nM; with human EGFR on cells [16], 0.7 nM; in [10], 8.8 nM. Moreover, the “EC50 (read off the curve)” value is approximately 2 nM with human EGFR on cells [4], approximately 10 nM in test [17], approximately 0.02 µg/mL with EGFR-antigen (ELISA) and approximately 0.03 µg/mL in the test with CD16A-antigen (ELISA). Further, the binding result (with Human FcRn (FCGRT/B2M) [13]; in test [14]; with Mouse FcRn (FCGRT/B2M) [15]) was “no binding (tested: up to 3000 nM)” each time.

Values taken from patent US20200405833A1 (AFFIMED, published 2020).
